Measured values taken from the supplement of paper PMC9732359.
± gives the uncertainty stated by the source.

Experiment: protein stability index of a GFP-peptide fusion (yeast GPS) (PSI 1-4); higher = more stable; sorted into four equal gates, so the index is relative within each strain
Conditions: san1∆
Procedure, shortened: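 The protein stability index of a peptide was calculated by multiplying its read frequency in each gate by that gate's number and adding the products. The peptides were tiled 17-residue stretches of yeast proteins, fused downstream of GFP on a Cherry-expressing plasmid and carried in yeast as a pooled library. Mid-log cultures in leucine-free medium were sorted into four equal gates by GFP/Cherry ratio, and each gate's plasmids were PCR-amplified and Illumina-sequenced.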

Sequence	protein stability index
NTENNDPDIPMTIDLEP [IRR1]	2.48 ± 0.19

Same assay, conditions: ubr1∆

Sequence	protein stability index
NGDNLYGNDEEVLFYED [RPN4]	2.95 ± 0.074
NGDNSTTTNTDQNNATM [SNF12]	1.99 ± 0.051
NGFAPISEVMEDRNQRI [FAS1]	3.31 ± 0.038
NGGVGVDVELITSINVE [FAS2]	3.13 ± 0.05
NGKLTSANERLFGNRPS [YML031W/NDC1]	2.94 ± 0.066
NGLAIRRAAYGVVRYVM [RPS3]	1.61 ± 0.053
NGNLEEEFAYVDPARRQ [MED6]	2.74 ± 0.085
NGNTSSKTVVTLSEPVQ [FAS1]	2.96 ± 0.055
NGRLNKCGVISPRFNVK [RPS22A]	3.22 ± 0.11
NGSSDASSLRFGNSLSN [YDL088C/ASM4]	2.56 ± 0.1
NGTISKTGKKNKVAKKN [SRP14]	3.17 ± 0.076
NGVRALFHSCTRIQYVD [GRR1]	2.59 ± 0.051
NGWEKYLHNVELGEKKN [ISW2]	2.56 ± 0.092
NHNQFECKGCDNKIDIY [RPB2]	3.1 ± 0.037
NHSLQHQNESSAASIPP [RPN4]	3.12 ± 0.037
NIDSSAQFTFGKAATAK [YOR098C/NUP1]	3.1 ± 0.072
NIEEMARVILYLKNVLF [SIN4]	2.05 ± 0.037
NIFSEAVKNKYNVGKQL [PRP28]	2.37 ± 0.076
NIKIDAKPALFERFINA [MCD1]	2.03 ± 0.066
NIKTIAETLAEELINAA [RPS5]	2.46 ± 0.048
NILPFLWGPHGLNSDAE [ECM29]	2.42 ± 0.2
NIRGNTIRQIILPDSLN [SMD1]	3.27 ± 0.099
NKDMIKNLVKVLESRVN [CSN12]	1.75 ± 0.15
NKINSRNSWNFALIDYF [BRN1]	1.1 ± 0.073
NKLSGILADEMGLGKTL [ISW2]	2.68 ± 0.096

Sequence	protein stability index
NKTDAQAPTTGFSFGSQ [YJL041W/NSP1]	3.07 ± 0.069
NKVGSTGSLMGGNSTQN [YGR119C/NUP57]	3.17 ± 0.053
NKVHETSSKSSSLSAII [YDL088C/ASM4]	2.8 ± 0.035
NKVQIMIATNVAARGLD [PRP28]	1.19 ± 0.055
NKVSNTVSPTQDKDAIR [SIR2]	3.11 ± 0.054
NLDAAAAGTSQARTATL [RPC10]	2.86 ± 0.096
NLDYLFELIELVTPKSF [NUT1]	3.31 ± 0.063
NLFPLKPKMLPIPSKPT [SRP68]	2.61 ± 0.081
NLKGRPYTGWVDSKTKE [FAS2]	3.04 ± 0.045
NLLHSYMEKGTQLDDLQ [YML103C/NUP188]	2.32 ± 0.034
NLNDAGLALQLFKKLKE [RPN2]	3.19 ± 0.28
NLPEEERKQIHEFKLIV [GRR1]	2.73 ± 0.13
NLPEHIVPGTYIQERNP [RPS10A]	2.68 ± 0.045
NLQPISTPENVPRLFDL [SMC4]	2.48 ± 0.064
NLRLLNSIDSTSRIELE [ECM29]	2.98 ± 0.057
NLRLLVEENRVRYTTSV [DLS1]	2.43 ± 0.048
NLSAFKIVYIAPLKALV [BRR2]	1.56 ± 0.062
NLSRYPKSGIDIFVYLT [MTR3]	2.27 ± 0.054
NLYHVTEDGWIYHGNHD [PRE2]	3.28 ± 0.22
NMLPQRQSSVGSLNATN [SNF2]	3.08 ± 0.046
NMMDAISFVLGVRSNHL [SMC1]	2.66 ± 0.064
NNEMKSLQRSKSSFVKE [SMC1]	3.28 ± 0.073
NNHNMRNNSNNKTSNNN [SWI1]	2.6 ± 0.049
NNIKNGTNNISQHGQGN [YDL088C/ASM4]	3.06 ± 0.021
NNKKVVGTAIDSILNYA [ECM29]	3.06 ± 0.083

Sequence	protein stability index
NNKNKRVTGAGGQQRRM [RPC53]	3.33 ± 0.073
NNNNNNNNSNNIMSASG [YGL172W/NUP49]	3.1 ± 0.059
NNRMGSYDCTGVNELAP [POP1]	2.79 ± 0.059
NNRSVSMQTIAETIILS [SRB5]	1.84 ± 0.031
NNSALSNVNSDIYFKLK [RPT3]	3.25 ± 0.073
NNSNNNNIIRIQQLISQ [SNF11]	2.69 ± 0.046
NNTEKNDVTNKNINIGK [SIR4]	2.37 ± 0.044
NNTNNNNTNTGASGVDD [SWI1]	3.3 ± 0.048
NNWFSLPGDMLAVCDEL [SIN4]	1.85 ± 0.067
NPFEDDMDGVDFNQAFE [BRN1]	3.3 ± 0.049
NPHQKDQLIISSSANKL [YML103C/NUP188]	2.78 ± 0.069
NPIIENNVDNKYKSGGK [SSN2]	3.07 ± 0.041
NPKYDTSNASMNTTLGS [YAR002W/NUP60]	3.14 ± 0.047
NPLAKTMADAVRELGIL [SEC65]	1.84 ± 0.053
NPMKKHKPNEGRTPNIS [SIR4]	2.97 ± 0.036
NPPYSQCIVYPNCLFIL [SOH1]	1.86 ± 0.035
NPVTLNEDSKAFHTAVL [NUT1]	2.41 ± 0.059
NQDSVKTYALESINNVV [RPN2]	3.31 ± 0.058
NQLEDFILELEHKTPEL [YIL149C/MLP2]	3.35 ± 0.12
NQSFIQQKANLLSSSNF [COR1]	1.76 ± 0.042
NQTNINSLAVRGKDCTV [SCL1]	3.19 ± 0.12
NQVMMDRKIQGWLGALT [ARP7]	2.98 ± 0.044
NRERFISKLFLRGDSVI [SMD2]	3.03 ± 0.15
NRGNKKRHRSSYYDNDL [YML031W/NDC1]	3 ± 0.11
NRKVLQALEKIGIVEIS [RPS19A]	2.31 ± 0.07

Sequence	protein stability index
NRKVRAGRGFTLAEVKA [RPL13A]	2.48 ± 0.044
NRMQISPDQMRNLQMGL [GRR1]	2.83 ± 0.12
NRQAAASVVPSASSLVI [RPL12A]	1.83 ± 0.032
NRRGMLALSGTSASNTS [SNF5]	2.92 ± 0.066
NRRKQSFVLNKNTIDFE [RPN4]	1.88 ± 0.044
NRTKSTTIKNIDILNRT [SMC4]	2.53 ± 0.041
NRTMDGKPVSLPLLYNF [FAS1]	2.93 ± 0.073
NRTVLLKIFKIFCIDLE [SRB8]	2.3 ± 0.071
NSADAAYAQVEIQPRAN [FAS2]	2.79 ± 0.048
NSASNNGNLTSNQLISN [SWI1]	2.75 ± 0.056
NSDIANLRTQVTQQKRS [SMC1]	3.08 ± 0.066
NSESDSKSDSDSEERDP [ITC1]	3.22 ± 0.12
NSKDHKKITLQLLDTSN [SIN4]	2.96 ± 0.053
NSLFYLKWSACTSLMDI [IRR1]	1.83 ± 0.042
NSLLSNFNDIPPSVTLQ [YDL088C/ASM4]	2.72 ± 0.11
NSLLTIVWRFISENTFP [RPC34]	2.31 ± 0.045
NSMDISMFSGLDSTGFD [MED2]	2.83 ± 0.049
NSNSNQQSTDADEDDED [RPT1]	2.37 ± 0.061
NSNSNSGSLFGSNNAQT [YGL172W/NUP49]	3.11 ± 0.11
NSPTSFFDGSASSTPIP [YOR098C/NUP1]	2.84 ± 0.046
NSSEIQSAIRPAGQATQ [RPL4A]	2.57 ± 0.062
NSSSMEEVMRIALMGQD [ESC2]	2.62 ± 0.049
NTAFGNSNPTSNVFGSN [YJL041W/NSP1]	3.6 ± 0.16
NTEKDYKMVQEQLSKQR [SMC2]	3.23 ± 0.043
NTENNDPDIPMTIDLEP [IRR1]	3.14 ± 0.12
